Laboratory results from patent US12319739 (F STAR DELTA, dated 2025).
One block for each binder: values may come before it.

How the values were obtained:
[1] = biological target: mouse CD137 expressed on cells (mouse, UniProt P20334 24-256); assay: cell-based or functional assay
mouse GITR = biological target: T1, mouse GITR (mouse, UniProt O35714 20-153, limits assumed, chemically biotinylated (EZ-Link Sulfo-NHS-SS-Biotin)); assay: BLI (Octet), biotinylated receptor on streptavidin sensors
T1 sequence (looked up): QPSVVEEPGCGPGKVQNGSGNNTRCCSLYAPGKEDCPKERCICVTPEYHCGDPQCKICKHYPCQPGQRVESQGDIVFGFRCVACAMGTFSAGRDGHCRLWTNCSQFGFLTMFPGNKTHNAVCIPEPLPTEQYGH
Protocol: (§1) The specificity of the anti-mouse CD137 Fcabs for mouse CD137 were tested in HeID1.3 "mock" mAb² format and measured by BLI in an Octet QKe system by testing for binding of the Fcabs to other mouse TNFRSF receptors (CD40, OX40, GITR). Streptavidin biosensors (PALL ForteBio 18-5021) to coat 10 ng/μl mouse CD40, GITR, OX40 receptors (all obtained from R&D Systems and biotinylated using an EZ-Link Sulfo-NHS-SS-Biotin kit from Thermoscientific #21328). Anti-mouse CD137 Fcabs in mock mAb² format were diluted 1:1 in kinetic buffer (PALL 18-1092) to a final concentration of at least 1 μM. Antigen-coated sensors were dipped into the mAb² solutions for 180 seconds followed by 180 seconds in 1× kinetic buffer. Antibodies for each of the TNFRSF receptors were used as positive controls.

mouse CD40 = mouse CD40 (mouse, UniProt P27512 24-193, limits assumed, chemically biotinylated (EZ-Link Sulfo-NHS-SS-Biotin)); assay: as above
Protocol: as §1

cMSLN-His-Avi = biological target: T2, cMSLN-His-Avi (cynomolgus, single biotin on the Avi tag in the biotinylated form); assay: SPR
T2 construct: Monomeric; also called cyno MSLN-His-Avi; cMSLN-Avi-His
T2 chain: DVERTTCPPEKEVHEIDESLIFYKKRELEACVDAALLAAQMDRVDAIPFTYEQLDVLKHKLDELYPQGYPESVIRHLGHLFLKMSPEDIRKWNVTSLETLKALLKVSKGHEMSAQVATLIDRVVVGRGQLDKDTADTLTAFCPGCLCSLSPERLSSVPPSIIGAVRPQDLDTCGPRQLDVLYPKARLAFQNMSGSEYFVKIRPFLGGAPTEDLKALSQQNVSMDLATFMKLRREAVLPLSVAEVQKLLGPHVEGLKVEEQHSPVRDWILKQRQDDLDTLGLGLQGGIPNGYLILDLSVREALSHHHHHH
Protocol: The association time was 5 min and the dissociation time was 5 min. Running buffer was HBS-EP (GE Healthcare BR100188). Flow cells were regenerated by injecting Glycine-HCl pH2.1 at a flow rate of 30 μl/min for 15 seconds. The data was analysed as described in Example 7.1.

hMSLN-His-Avi [2] = biological target: T3, hMSLN-His-Avi (human, UniProt Q13421 296-598, single biotin on the Avi tag in the biotinylated form); assay: SPR, hMSLN-His-Avi immobilised at 50 RU
T3 construct: Monomeric; also called human MSLN-His-Avi; hMSLN-Avi-His

hMSLN-His-Avi [3] = biological target: T3, hMSLN-His-Avi; assay: SPR, hMSLN-His-Avi immobilised at 100 RU
hMSLN-His-Avi [4] = biological target: T3, hMSLN-His-Avi; assay: ELISA, hMSLN-His-Avi coated 1 µg/ml
human EpCAM-hFc = biological target: T4, human EpCAM-hFc (human, UniProt P16422 24-265, limits assumed); assay: ELISA, antigen coated 1 µg/ml
T4 sequence (looked up): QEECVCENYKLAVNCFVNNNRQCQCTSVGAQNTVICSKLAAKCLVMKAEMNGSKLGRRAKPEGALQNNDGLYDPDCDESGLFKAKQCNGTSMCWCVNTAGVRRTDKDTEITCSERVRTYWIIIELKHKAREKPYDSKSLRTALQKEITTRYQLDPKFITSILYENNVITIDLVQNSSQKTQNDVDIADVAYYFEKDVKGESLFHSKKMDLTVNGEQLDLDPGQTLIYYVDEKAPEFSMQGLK
Protocol: (§2) Binding of the anti-MSLN mAbs, tested at a concentration range of 0.02 to 1000 nM (3-fold dilutions) was detected using anti-human Fab-HRP (Sigma, A0293).

human E-Cadherin = biological target: T5, human E-Cadherin (human, UniProt P12830 155-707); assay: ELISA, antigen coated 1 µg/ml
T5 sequence (looked up): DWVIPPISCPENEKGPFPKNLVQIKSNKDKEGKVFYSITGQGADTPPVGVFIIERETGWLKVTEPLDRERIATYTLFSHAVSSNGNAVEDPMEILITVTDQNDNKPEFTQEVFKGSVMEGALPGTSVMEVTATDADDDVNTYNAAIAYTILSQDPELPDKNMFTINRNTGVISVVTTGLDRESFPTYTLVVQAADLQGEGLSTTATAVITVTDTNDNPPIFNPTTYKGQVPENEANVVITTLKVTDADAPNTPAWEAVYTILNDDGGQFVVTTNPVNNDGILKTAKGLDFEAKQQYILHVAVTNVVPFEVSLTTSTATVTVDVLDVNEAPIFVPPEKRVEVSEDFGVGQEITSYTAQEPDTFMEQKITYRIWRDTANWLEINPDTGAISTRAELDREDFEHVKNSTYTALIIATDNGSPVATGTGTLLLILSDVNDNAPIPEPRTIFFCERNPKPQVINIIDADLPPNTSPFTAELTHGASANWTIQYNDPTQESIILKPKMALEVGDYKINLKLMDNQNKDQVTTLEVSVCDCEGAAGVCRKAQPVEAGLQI
Protocol: as §2

human Thrombomodulin = human Thrombomodulin (human, UniProt P07204 19-515, limits assumed); assay: ELISA, antigen coated 1 µg/ml
Protocol: as §2

human CEACAM-5-His-Fc = biological target: T6, human CEACAM-5-His-Fc (human, UniProt P06731 35-685); assay: ELISA, antigen coated 1 µg/ml
T6 sequence (looked up): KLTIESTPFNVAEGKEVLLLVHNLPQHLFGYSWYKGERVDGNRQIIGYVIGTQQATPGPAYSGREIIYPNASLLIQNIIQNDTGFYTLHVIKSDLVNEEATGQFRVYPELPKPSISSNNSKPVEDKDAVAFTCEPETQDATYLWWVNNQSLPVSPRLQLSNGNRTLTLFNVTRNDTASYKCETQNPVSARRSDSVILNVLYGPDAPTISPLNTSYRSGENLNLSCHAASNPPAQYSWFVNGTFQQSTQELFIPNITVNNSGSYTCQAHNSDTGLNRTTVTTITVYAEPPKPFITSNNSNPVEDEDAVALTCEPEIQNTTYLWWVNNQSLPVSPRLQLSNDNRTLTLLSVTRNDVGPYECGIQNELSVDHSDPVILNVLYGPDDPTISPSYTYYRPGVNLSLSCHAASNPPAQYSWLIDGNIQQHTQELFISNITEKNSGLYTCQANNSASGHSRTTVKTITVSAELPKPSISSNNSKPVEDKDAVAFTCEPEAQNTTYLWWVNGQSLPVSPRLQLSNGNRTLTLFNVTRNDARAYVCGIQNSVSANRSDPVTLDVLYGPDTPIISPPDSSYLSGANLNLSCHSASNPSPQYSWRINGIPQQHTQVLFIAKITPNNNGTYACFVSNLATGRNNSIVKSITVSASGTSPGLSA
Protocol: as §2

[5] = biological target: T7, mouse CD137 ligand on DO11.10 cells (mouse, UniProt P41274 1-309); assay: flow cytometry, detected with anti mouse Fc antibody
T7 construct: whole, on cells
T7 sequence (looked up): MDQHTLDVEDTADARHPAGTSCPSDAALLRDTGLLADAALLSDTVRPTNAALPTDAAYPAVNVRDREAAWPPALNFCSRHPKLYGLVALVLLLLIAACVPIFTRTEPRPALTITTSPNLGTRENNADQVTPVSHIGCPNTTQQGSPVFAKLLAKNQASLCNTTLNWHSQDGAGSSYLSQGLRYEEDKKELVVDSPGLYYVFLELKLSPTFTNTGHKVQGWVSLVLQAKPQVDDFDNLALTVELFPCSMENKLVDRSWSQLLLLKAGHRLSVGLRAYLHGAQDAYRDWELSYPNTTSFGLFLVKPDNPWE
Protocol: Cells were incubated with the CD137 antigens for 1 hour, and then a fluorescently labelled anti mouse Fc fragment antibody was used to detect cell binding.

T3 sequence (Q13421 other isoform, or with tags, fused parts or gaps): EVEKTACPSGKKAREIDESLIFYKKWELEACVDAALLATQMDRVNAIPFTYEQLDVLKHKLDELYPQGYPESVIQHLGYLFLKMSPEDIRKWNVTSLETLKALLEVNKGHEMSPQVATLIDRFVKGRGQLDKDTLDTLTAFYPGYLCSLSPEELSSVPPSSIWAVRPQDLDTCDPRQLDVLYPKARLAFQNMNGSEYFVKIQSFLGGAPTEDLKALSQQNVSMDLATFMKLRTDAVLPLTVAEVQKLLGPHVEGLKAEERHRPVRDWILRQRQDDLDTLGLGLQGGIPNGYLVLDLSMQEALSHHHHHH
Chain of human Thrombomodulin (P07204 19-515 limits assumed): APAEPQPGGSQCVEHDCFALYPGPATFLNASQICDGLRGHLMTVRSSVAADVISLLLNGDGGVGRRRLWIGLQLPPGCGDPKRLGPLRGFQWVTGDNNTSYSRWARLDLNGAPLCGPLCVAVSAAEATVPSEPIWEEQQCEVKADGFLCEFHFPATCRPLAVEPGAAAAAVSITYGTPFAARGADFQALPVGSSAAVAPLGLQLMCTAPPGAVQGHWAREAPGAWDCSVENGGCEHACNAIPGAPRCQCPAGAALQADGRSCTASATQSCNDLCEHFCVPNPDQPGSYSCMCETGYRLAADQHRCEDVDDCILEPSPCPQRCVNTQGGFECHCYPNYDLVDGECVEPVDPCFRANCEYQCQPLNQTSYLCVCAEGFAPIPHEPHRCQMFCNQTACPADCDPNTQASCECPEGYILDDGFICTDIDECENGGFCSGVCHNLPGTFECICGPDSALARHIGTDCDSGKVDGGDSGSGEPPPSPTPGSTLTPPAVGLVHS
Chain of mouse CD40 (P27512 24-193 limits assumed): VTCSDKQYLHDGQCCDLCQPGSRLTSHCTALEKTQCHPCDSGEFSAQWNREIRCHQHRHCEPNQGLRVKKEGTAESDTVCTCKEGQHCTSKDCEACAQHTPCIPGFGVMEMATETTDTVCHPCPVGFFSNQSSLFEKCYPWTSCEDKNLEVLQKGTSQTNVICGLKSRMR

NF-κB luciferase reporter EC50, HEK.FRT.luc.mCD137 cells, crosslinked with Protein L [1]: 1.44 nM | NF-κB luciferase reporter, fold-change in activity upon Protein L crosslinking [1]: 27 fold | binding result (mouse GITR): no binding (tested: at least 1 µM) | binding result (mouse CD40): no binding (tested: at least 1 µM)
B1: FS22m-063 in mock mAb^2 (HelD1.3) format (bispecific antibody, human IgG1, kappa, L234A L235A)
heavy: QVQLQESGPGLVRPSQTLSLTCTVSGSTFSGYGVNWVRQPPGRGLEWIGMIWGDGNTDYNSALKSRVTMLVDTSKNQFSLRLSSVTAADTAVYYCARERDYRLDYWGQGSLVTVSSASTKGPSVFPLAPSSKSTSGGTAALGCLVKDYFPEPVTVSWNSGALTSGVHTFPAVLQSSGLYSLSSVVTVPSSSLGTQTYICNVNHKPSNTKVDKKVEPKSCDKTHTCPPCPAPEAAGGPSVFLFPPKPKDTLMISRTPEVTCVVVDVSHEDPEVKFNWYVDGVEVHNAKTKPREEQYNSTYRVVSVLTVLHQDWLNGKEYKCKVSNKALPAPIEKTISKAKGQPREPQVYTLPPSRDEPYWSYVSLTCLVKGFYPSDIAVEWESNGQPENNYKTTPPVLDSDGSFFLYSKLTVMNYRWELGNVFSCSVMHEALHNHYTQKSLSLSPG
light: DIQMTQSPASLSASVGETVTITCRASGNIHNYLAWYQQKQGKSPQLLVYNAKTLADGVPSRFSGSGSGTQYSLKINSLQPEDFGSYYCQHFWSTPRTFGGGTKLEIKRTVAAPSVFIFPPSDEQLKSGTASVVCLLNNFYPREAKVQWKVDNALQSGNSQESVTEQDSKDSTYSLSSTLTLSKADYEKHKVYACEVTHQGLSSPVTKSFNRGEC
notes: The entries are those of FS22m-063-AA/HelD1.3 (with LALA); also called FS22m-063-AA/HelD1.3; FS22m-063/HeID1.3

fold lower affinity for cyno MSLN than for human MSLN (cMSLN-His-Avi): ~5 fold | Kd (hMSLN-His-Avi [2]): 0.77 nM | Kd (hMSLN-His-Avi [3]): 0.23 nM | EC50 (hMSLN-His-Avi [4]): ~0.5 nM | maximum binding signal (hMSLN-His-Avi [4]): 3 | binding result (human EpCAM-hFc): no binding (tested: 1000 nM) | binding result (human E-Cadherin): no binding (tested: 1000 nM) | binding result (human Thrombomodulin): no binding (tested: 1000 nM) | binding result (human CEACAM-5-His-Fc): no binding (tested: 1000 nM)
B2: FS28-024 (mAb in G1-AA format) (antibody, human IgG1, V domains shown)
VH: EVQLLESGGGLVQPGGSLRLSCAASGFTLSYSSMSWVRQAPGKGLEWVSFITPSTGYTHYADSVKGRFTISRDNSKNTLYLQMNSLRAEDTAVYYCARRALTFDYWGQGTLVTVSS
VL: EIVLTQSPGTLSLSPGERATLSCRASQSVSSSYLAWYQQKPGQAPRLLIYGASSRATGIPDRFSGSGSGTDFTLTISRLEPEDFAVYYCQQASSYPLTFGQGTKVEIK

binding result [5]: binds
B3: mCD137-mFc-Avi (Fc fusion, not shown: a dimerising Fc or GST; small tags and cut ends)
chain: VQNSCDNCQPGTFCRKYNPVCKSCPPSTFSSIGGQPNCNICRVCAGYFRFKKFCSSTHNAECECIEGFHCLGPQCTRCEKDCRPGQELTKQGCKTCSLGTFNDQNGTGVCRPWTNCSLDGRSVLKTGTTEKDVVCGPPVVSFSPSTTISVTPEGGPGGHSLQVL
modifications: one biotin on each Avi tag in the biotinylated form
notes: also called mouse dimeric CD137; mouse CD137-mFc-Avi
